According to patent US20250269025A1 (AVENCELL THERAPEUTICS, published 2025):
No end group written: not given here.

Key:
[1] = target: T1, CD123 on CD123 positive AML cells (Oci-AML3, Molm-13, MV4-11, primary AML cells) (human, UniProt P26951 19-378); assay: cellular binding assay per table caption, Molm-13 cells; Molm-13 cells
T1 construct: whole, on cells; Endogenous CD123 on human AML cell lines; also called target antigen CD123

[2] = target: T1, CD123 on CD123 positive AML cells …; assay: cellular binding assay per table caption, Oci-AML3 cells; Oci-AML3 cells
[3] = target: T2, La epitope 5B9 (SEQ ID No. 28) fused to human Fc domain (human, also: fused to human Fc domain, order, isotype, linker not given here); assay: SPR, Biacore X100, La epitope 5B9-human Fc on CM5 chip; KD 5B9 (second number of the cell)
T2 construct: Coupled to a CM5 sensor chip; not shown: human Fc domain
T2 chain: KPLPEVTDEY
Protocol: (§1) Furthermore, binding of different variants of the targeting module according to the invention was analyzed using the La epitope 5B9 (SEQ ID No. 28) fused to human Fc domain which was coupled to a CM5 sensor chip on a Biacore X100 device (FIG. 3). The targeting modules were purified monomers. The targeting modules were concentrated between 2.47 to 200 nM and measured in technical duplicates. For data fitting and KD calculation a two-state-reaction binding model was applied.

[4] = target: T3, human CD123-Fc (human, UniProt P26951 19-305, limits assumed); assay: SPR, Biacore X100, human CD123-Fc on CM5 chip, 1:1 model; KD CD123 (first number of the cell)
T3 construct: Coupled to a CM5 sensor chip; also called soluble recombinant CD123; not shown: Fc part
T3 sequence (looked up): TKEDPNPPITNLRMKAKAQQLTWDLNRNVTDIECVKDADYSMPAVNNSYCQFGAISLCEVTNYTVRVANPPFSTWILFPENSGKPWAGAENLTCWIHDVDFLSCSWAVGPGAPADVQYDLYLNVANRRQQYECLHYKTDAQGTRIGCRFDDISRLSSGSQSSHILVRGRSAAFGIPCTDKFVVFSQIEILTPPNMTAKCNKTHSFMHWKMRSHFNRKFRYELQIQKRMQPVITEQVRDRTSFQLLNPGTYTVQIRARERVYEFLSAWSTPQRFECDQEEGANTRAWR
Protocol: (§2) Binding of different variants of the targeting module according to the invention was analyzed by SPR measurements using human CD123-Fc coupled to a CM5 sensor chip on a Biacore X100 device (FIG. 2). Targeting modules were purified monomer except for the targeting module according to SEQ ID No. 8. […] For data fitting and KD calculation a 1:1 binding model was applied.

[5] = target: T3, human CD123-Fc; assay: SPR, Biacore X100, human CD123-Fc on CM5 chip, 1:1 model
Protocol: as §2

[6] = target: T1, CD123 on CD123 positive AML cells …; assay: flow cytometry on Oci-AML3 cells, anti-His-PE detection. Half-maximal binding from a four-parameter fit of gMFI. Unit taken from the concentration axis [M]. The curve has no upper plateau in the range shown
Protocol: Cellular binding of CD123-binding targeting modules (TM) was tested on CD123 positive target cell lines Oci-AML3 and Molm-13: A) SEQ ID No. 5 to Oci-AML3, B) SEQ ID No. 9 to Oci-AML3, C) SEQ ID No. 4 to Molm-13 and D) SEQ ID No. 6 to Molm-13. The affinity of TMs was analyzed by flow cytometry. The TMs were titrated on an AML cell lines and then detected by a mouse anti-His-tag antibody conjugated to phycoerythrin.
Different concentrations of R-TM123 were incubated with cells, washed and quantified. A dose-response curve was obtained when the geometric mean fluorescence (MFI) was plotted against the TM concentration.

[7] = target: T3, human CD123-Fc; assay: SPR, Biacore X100, human CD123-Fc on CM5 chip, 1:1 model; TM not purified monomer
Protocol: as §2

[8] = target: T2, La epitope 5B9 (SEQ ID No. 28) fused to …; assay: SPR, Biacore X100, La epitope 5B9-human Fc on CM5 chip
Protocol: as §1

B1: targeting module according to SEQ ID No. 2 (reference) (bispecific antibody)
chain: EVQLQQSGPELVKPGASVKMSCKASGYTFTDYYMKWVKQSHGKSLEWIGDIIPSNGATFYNQKFKGKATLTVDRSSSTAYMHLNSLTSEDSAVYYCTRSHLLRASWFAYWGQGTLVTVSAASGGGGSGGGGSGGGGSDFVMTQSPSSLTVTAGEKVTMSCKSSQSLLNSGNQKNYLTWYLQKPGQPPKLLIYWASTRESGVPDRFTGSGSGTDFTLTISSVQAEDLAVYYCQNDYSYPYTFGGGTKLEIKAAARGQVQLVQSGAEVKKPGASVKVSCKASGYTFTHYYIYWVRQAPGQGLEWMGGVNPSNGGTHFNEKFKSRVTMTRDTSISTAYMELSRLRSDDTAVYYCARSEYDYGLGFAYWGQGTLVTVSSGGGGSGGGGSGGGGSDIVMTQSPDSLAVSLGERATINCKSSQSLLNSRTPKNYLAWYQQKPGQPPKLLIYWASTRKSGVPDRFSGSGSGTDFTLTISSLQAEDVAVYYCKQSYNLLTFGGGTKVEIKGPEQKLISEEDLNSAVDHHHHHH
notes: also called muCD123 + 5B9-VH-VL
EC50 [1]: 0.0023 nM
EC50 [2]: 0.0032 nM
Kd [3]: 17 nM
Kd [4]: 0.227 nM

B2: targeting module according to SEQ ID No. 9 (bispecific antibody)
chain: EVQLVQSGAEVKKPGASVKMSCKASGYTFTDYYMKWVKQAPGQGLEWIGDIIPSNGATFYNQKFKGRATLTVDRSTSTAYMELSSLRSEDTAVYYCTRSHLLRASWFAYWGQGTLVTVSSASGGGGSGGGGSGGGGSDFVMTQSPDSLAVSLGERATINCESSQSLLNTGNQKNYLTWYLQKPGQPPKLLIYWASTRESGVPDRFSGSGSGTDFTLTISSVQAEDVAVYYCQNDYSYPYTFGGGTKLEIKAAARGDIVMTQSPDSLAVSLGERATINCKSSQSLLNSRTPKNYLAWYQQKPGQPPKLLIYWASTRKSGVPDRFSGSGSGTDFTLTISSLQAEDVAVYYCKQSYNLLTFGGGTKVEIKGGGGSGGGGSGASAAGGGGSGGGGSQVQLVQSGAEVKKPGASVKVSCKASGYTFTHYYIYWVRQAPGQGLEWMGGVNPSNGGTHFNEKFKSRVTMTRDTSISTAYMELSRLRSDDTAVYYCARSEYDYGLGFAYWGQGTLVTVSSGGGGSHHHHHHHH
notes: also called huCD123_4 + 5B9-VLVH
Kd [5]: 0.162 nM
Kd [6]: 6.77 nM

B3: targeting module according to SEQ ID No. 8 (bispecific antibody)
chain: GQVQLVQSGAEVKKPGASVKMSCKASGYTFTDYYMKWVKQAPGQGLEWIGDIIPSNGATFYNQKFKGRATLTVDKSTSTAYMELSSLRSEDTAVYYCTRSHLLRASWFAYWGQGTLVTVSSASGGGGSGGGGSGGGGSDFVMTQSPDSLAVSLGERATMNCKSSQSLLNSGNQKNYLTWYLQKPGQPPKLLIYWASTRESGVPDRFSGSGSGTDFTLTISSVQAEDVAVYYCQNDYSYPYTFGGGTKLEIKAAARGDIVMTQSPDSLAVSLGERATINCKSSQSLLNSRTPKNYLAWYQQKPGQPPKLLIYWASTRKSGVPDRFSGSGSGTDFTLTISSLQAEDVAVYYCKQSYNLLTFGGGTKVEIKGGGGSGGGGSGASAAGGGGSGGGGSQVQLVQSGAEVKKPGASVKVSCKASGYTFTHYYIYWVRQAPGQGLEWMGGVNPSNGGTHFNEKFKSRVTMTRDTSISTAYMELSRLRSDDTAVYYCARSEYDYGLGFAYWGQGTLVTVSSGGGGSHHHHHHHH
notes: also called huCD123_3 + 5B9-VLVH
Kd [7]: 0.131 nM

B4: targeting module according to SEQ ID No. 3 (bispecific antibody)
chain: GQVQLVQSGAEVKKPGSSVKVSCKASGYTFTDYYIHWVRQAPGQGLEWMGDIIPSNGATFYNQRFKGRVTITADESTSTAYMELSSLRSEDTAVYYCTRSHLLRASWFAYWGQGTLVTVSSASGGGGSGGGGSGGGGSDIVMTQTPLSLSVTPGQPASISCRSSQSLLNSGNQKNYLTWYLQKPGQSPQLLIYWASTRFIGVPDRFSGSGSGTDFTLKISRVEAEDVGVYYCQNDYSYPYTFGQGTKLEIKAAARGDIVMTQSPDSLAVSLGERATINCKSSQSLLNSRTPKNYLAWYQQKPGQPPKLLIYWASTRKSGVPDRFSGSGSGTDFTLTISSLQAEDVAVYYCKQSYNLLTFGGGTKVEIKGGGGSGGGGSGASAAGGGGSGGGGSQVQLVQSGAEVKKPGASVKVSCKASGYTFTHYYIYWVRQAPGQGLEWMGGVNPSNGGTHFNEKFKSRVTMTRDTSISTAYMELSRLRSDDTAVYYCARSEYDYGLGFAYWGQGTLVTVSSGGGGSHHHHHHHH
notes: also called huCD123_1 + 5B9-VL-VH
Kd [8]: 2 nM
EC50 [2]: 23 nM
